The results in this text go back to publication PMC3149608, “A Novel Acyl-CoA Beta-Transaminase Characterized from a Metagenome” (PLoS ONE, 2011).

The target of series [1] is T1, AtoA/AtoD complex (butyrate-acetoacetate CoA transferase) (Cloacimonas acidaminivorans (SeqCode), UniProt B0VIH1+B0VIH2).
T1 construct: each subunit in pEXP-5-NT/TOPO, E. coli, mixed equimolar; by primers AtoA (M)ALDKRAM...ERVNTF, AtoD (M)VQIISA...VLAKEN
T1 sequence (B0VIH1 1-218): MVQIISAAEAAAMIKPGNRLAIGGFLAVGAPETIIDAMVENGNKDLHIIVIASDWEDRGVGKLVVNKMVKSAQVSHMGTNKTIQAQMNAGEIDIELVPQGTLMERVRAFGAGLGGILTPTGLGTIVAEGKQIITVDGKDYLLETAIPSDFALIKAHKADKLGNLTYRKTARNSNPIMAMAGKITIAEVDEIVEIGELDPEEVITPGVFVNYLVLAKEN
T1 sequence (B0VIH2 1-217): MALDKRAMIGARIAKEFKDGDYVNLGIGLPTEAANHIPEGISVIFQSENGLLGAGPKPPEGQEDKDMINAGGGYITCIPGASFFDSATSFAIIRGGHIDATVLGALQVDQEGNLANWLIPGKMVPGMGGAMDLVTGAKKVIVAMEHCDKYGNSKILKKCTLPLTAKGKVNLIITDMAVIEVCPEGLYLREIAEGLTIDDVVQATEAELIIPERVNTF
As to the kind of experiment: CoA transferase assay, acetoacetyl-CoA formation at […] nm. The conditions noted are these: 4 mM MgCl2, 50 mM Tris/HCl pH 8.1. In kind it is biochemical.

Series [2] concerns the target T2, Kat (HemL-like), 3-aminobutyryl-CoA aminotransferase (Cloacimonas acidaminivorans (SeqCode), UniProt B0VH76).
T2 construct: full-length CDS in pEXP-5-NT/TOPO, E. coli; by primers starts (M)AEKLKLA, ends EVKKML
T2 sequence (B0VH76 1-414): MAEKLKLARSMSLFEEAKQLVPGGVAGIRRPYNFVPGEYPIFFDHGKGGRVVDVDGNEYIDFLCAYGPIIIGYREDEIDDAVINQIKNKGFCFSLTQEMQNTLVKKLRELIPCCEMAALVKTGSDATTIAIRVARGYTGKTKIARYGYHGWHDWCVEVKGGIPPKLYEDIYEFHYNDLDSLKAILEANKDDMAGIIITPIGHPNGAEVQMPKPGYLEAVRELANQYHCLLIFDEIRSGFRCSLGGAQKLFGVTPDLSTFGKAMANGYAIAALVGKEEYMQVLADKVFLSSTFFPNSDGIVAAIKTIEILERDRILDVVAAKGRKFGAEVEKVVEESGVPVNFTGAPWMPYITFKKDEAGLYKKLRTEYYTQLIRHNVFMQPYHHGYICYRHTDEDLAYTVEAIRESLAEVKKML
As to the kind of experiment: spectrophotometric, acetoacetyl-CoA formation at […] nm. In kind it is biochemical. The settings on record: 25 µM (3S)-3-aminobutyryl-CoA; 50 mM Tris/HCl pH 8.1, 5 mM MgCl2.

Substrate in series [3]: O=C(O)CCC(=O)C(=O)O
As to the kind of experiment: purified protein. It counts as biochemical, Cloacimonas acidaminivorans (SeqCode). The conditions noted are these: 25 µM (3S)-3-aminobutyryl-CoA, 50 mM Tris/HCl pH 8.1, 5 mM MgCl2.

Substrate in series [4]: C[C@H](N)CC(=O)SCCNC(=O)CCNC(=O)[C@H](O)C(C)(C)COP(=O)(O)OP(=O)(O)OC[C@H]1O[C@@H](n2cnc3c(N)ncnc32)[C@H](O)[C@@H]1OP(=O)(O)O
As to the kind of experiment: purified protein. The conditions noted are these: 50 mM α-ketoglutarate, 50 mM Tris/HCl pH 8.1, 5 mM MgCl2. In kind it is biochemical, Cloacimonas acidaminivorans (SeqCode).

As to `CC(=O)SCCNC(=O)CCNC(=O)[C@H](O)C(C)(C)COP(=O)(O)OP(=O)(O)OC[C@H]1O[C@@H](n2cnc3c(N)ncnc32)[C@H](O)[C@@H]1OP(=O)(O)O` [acetyl-CoA], the “CoA transferase assay, acetoacetyl-CoA formation at 310 nm” value in series [1] (10 mM acetoacetate) was “formation in vitro of acetoacetyl-CoA and acetate from acetoacetate and acetyl-CoA”.
Take `CC(=O)CC(=O)O` [acetoacetate]: the “CoA transferase assay, acetoacetyl-CoA formation at 310 nm” value in series [1] (acetyl-CoA as CoA donor) was “formation in vitro of acetoacetyl-CoA and acetate from acetoacetate and acetyl-CoA”.
On to `CC(=O)C(=O)O` [pyruvate], for which the “K m (M)” value in series [2] is listed as 20.1±1.3 10^−3 M.

B1: Kat (HemL-like), 3-aminobutyryl-CoA aminotransferase (Candidatus Cloacimonas acidaminivorans str. Evry) (protein)
chain: MAEKLKLARSMSLFEEAKQLVPGGVAGIRRPYNFVPGEYPIFFDHGKGGRVVDVDGNEYIDFLCAYGPIIIGYREDEIDDAVINQIKNKGFCFSLTQEMQNTLVKKLRELIPCCEMAALVKTGSDATTIAIRVARGYTGKTKIARYGYHGWHDWCVEVKGGIPPKLYEDIYEFHYNDLDSLKAILEANKDDMAGIIITPIGHPNGAEVQMPKPGYLEAVRELANQYHCLLIFDEIRSGFRCSLGGAQKLFGVTPDLSTFGKAMANGYAIAALVGKEEYMQVLADKVFLSSTFFPNSDGIVAAIKTIEILERDRILDVVAAKGRKFGAEVEKVVEESGVPVNFTGAPWMPYITFKKDEAGLYKKLRTEYYTQLIRHNVFMQPYHHGYICYRHTDEDLAYTVEAIRESLAEVKKML
notes: full-length CDS in pEXP-5-NT/TOPO, E. coli; by primers starts (M)AEKLKLA, ends EVKKML
The term kcat denotes the maximal rate divided by the concentration of active sites. The term kcat/Km denotes the second-order rate constant that governs catalysis at low substrate concentration. Consider B1, for which, in the series “purified protein [3]”, the kcat stood at 1.8 ± 0.1 s⁻¹ and the kcat/Km worked out at 620 M⁻¹ s⁻¹. For the same molecule, in the series “purified protein [4]”, the catalytic constant (kcat) came to 1.8 ± 0.2 s⁻¹ and the kcat/Km is 420000 M⁻¹ s⁻¹.
